From PMC7480107 come the findings set out here.

In this experiment the target is F-actin (rabbit muscle actin, polymerized) (rabbit) (UniProt P68135). Description: co-sedimentation.

Take “Pav-HEAD (1-500 aa) (domain or fragment)”: the percent of the protein in the pellet with F-actin is 84%.
“Pav^DEAD-HEAD (1-500 aa with G131E mutation) (domain or fragment)” came in with a percent of the protein in the pellet with F-actin of 87%.
